Reference: US20160279221A1 (UNITED STATES OF AMERICA AS REPRESENTED BY THE SECRETARY OF …, published 2016)
Substitutions are numbered along the chain they refer to.

T1: P. falciparum 7G8 AMA1 recombinant allelic protein (Plasmodium falciparum, UniProt P50492 83-531)
T1 sequence: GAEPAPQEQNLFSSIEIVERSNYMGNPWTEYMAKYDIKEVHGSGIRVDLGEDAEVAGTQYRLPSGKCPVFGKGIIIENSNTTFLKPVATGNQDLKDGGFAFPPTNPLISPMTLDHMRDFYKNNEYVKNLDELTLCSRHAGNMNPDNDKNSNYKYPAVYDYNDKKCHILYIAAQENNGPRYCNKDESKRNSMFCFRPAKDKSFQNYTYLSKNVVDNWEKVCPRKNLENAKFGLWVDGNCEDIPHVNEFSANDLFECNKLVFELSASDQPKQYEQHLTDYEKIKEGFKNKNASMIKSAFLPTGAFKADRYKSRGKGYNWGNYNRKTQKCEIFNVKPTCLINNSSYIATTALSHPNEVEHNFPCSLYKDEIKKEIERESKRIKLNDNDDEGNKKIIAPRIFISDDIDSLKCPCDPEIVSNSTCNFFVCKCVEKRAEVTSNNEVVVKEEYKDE

T2: P. falciparum FVO AMA1 recombinant allelic protein (Plasmodium falciparum, UniProt P50490 83-531)
T2 sequence: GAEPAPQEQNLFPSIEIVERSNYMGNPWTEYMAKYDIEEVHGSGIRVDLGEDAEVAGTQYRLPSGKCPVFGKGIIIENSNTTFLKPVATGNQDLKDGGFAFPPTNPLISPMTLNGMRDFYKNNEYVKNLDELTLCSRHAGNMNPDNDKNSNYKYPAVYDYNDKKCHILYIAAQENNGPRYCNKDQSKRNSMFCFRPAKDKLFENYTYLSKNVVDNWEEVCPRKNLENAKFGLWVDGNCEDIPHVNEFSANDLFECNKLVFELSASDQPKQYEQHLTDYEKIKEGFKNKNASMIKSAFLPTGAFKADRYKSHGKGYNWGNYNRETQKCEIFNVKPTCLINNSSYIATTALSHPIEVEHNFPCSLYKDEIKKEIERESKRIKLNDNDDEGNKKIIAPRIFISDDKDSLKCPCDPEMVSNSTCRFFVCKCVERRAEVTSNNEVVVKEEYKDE

T3: P. falciparum HB3 AMA1 recombinant allelic protein (Plasmodium falciparum, UniProt P50491 83-531)
T3 sequence: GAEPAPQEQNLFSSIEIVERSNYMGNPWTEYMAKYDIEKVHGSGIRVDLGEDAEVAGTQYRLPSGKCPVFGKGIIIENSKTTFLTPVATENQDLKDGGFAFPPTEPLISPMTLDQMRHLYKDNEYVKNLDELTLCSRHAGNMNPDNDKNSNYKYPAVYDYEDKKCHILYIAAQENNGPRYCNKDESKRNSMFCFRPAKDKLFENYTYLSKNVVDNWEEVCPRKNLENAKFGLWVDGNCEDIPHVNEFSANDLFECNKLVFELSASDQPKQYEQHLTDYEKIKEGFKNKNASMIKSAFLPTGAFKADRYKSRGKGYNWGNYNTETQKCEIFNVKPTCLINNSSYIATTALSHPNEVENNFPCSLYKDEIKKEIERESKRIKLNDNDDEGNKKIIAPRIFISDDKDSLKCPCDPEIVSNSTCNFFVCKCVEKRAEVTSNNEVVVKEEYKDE

T4: P. falciparum W2mef AMA1 recombinant allelic protein (Plasmodium falciparum, UniProt P50492 83-531)
T4 chain: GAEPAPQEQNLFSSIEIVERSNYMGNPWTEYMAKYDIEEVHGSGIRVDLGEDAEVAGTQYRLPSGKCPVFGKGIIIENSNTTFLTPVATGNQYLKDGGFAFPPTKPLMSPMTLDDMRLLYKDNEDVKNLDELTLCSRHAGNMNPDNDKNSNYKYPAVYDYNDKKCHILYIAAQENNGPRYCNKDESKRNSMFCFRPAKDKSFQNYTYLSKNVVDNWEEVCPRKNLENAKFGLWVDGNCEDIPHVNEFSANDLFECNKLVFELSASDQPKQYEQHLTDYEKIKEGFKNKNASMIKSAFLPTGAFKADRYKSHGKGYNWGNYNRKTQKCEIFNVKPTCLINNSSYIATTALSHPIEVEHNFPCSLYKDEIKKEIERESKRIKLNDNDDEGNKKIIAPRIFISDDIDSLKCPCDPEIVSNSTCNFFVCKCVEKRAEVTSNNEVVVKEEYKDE

T5: P. falciparum 3D7 AMA1 recombinant allelic protein (Plasmodium falciparum, UniProt P22621 83-531)
T5 chain: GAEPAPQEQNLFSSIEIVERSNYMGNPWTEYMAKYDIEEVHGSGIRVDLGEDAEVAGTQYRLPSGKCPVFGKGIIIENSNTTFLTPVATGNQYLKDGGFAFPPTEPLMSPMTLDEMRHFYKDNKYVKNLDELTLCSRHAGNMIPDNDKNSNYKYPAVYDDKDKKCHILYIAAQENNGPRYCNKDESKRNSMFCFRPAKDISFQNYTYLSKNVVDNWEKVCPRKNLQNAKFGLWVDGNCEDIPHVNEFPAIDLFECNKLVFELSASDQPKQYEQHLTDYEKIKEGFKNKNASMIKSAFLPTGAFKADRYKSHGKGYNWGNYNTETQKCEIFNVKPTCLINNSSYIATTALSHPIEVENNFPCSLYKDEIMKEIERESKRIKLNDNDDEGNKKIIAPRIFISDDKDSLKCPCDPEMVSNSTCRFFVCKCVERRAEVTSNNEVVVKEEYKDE

B1: monoclonal antibody 1E10 (antibody, V domains shown)
VH: EVQLQESGAELAKPGASVKLSCKASGYTFTNYLMHWIKQRPGQGLEWIGYINHGSGYTNYNQKFIDRATLTADKSSSTAYMQLRSLTYEDSAVYYCVHGYFDVWGTGTTVTVSS
VL: QIVLTQSPTIMSASPGEKVTMTCSASSSVTYMHWYQQKPGTSPKRWIYDTSKLASGVPARFSGSGSGTSYSLTISSMEAEDAATYYCHQRSSYPTFGGGTKLEIKR
notes: Mouse monoclonal raised against QV, purified from ascites on Protein G; also called mAb 1E10; Monoclonal 1E10
B2: monoclonal antibody 1B10 (antibody, V domains shown)
VH: EVQLQESGPGLVQPSQSLSITCTVSGFSLNMYGVHWVRQSPGKGLEWLGVIWSGGTTDYNAAFISRLSINRDNSKSQVFFKMNSLQTDDTAIYYCVRNNGYYVDAMDYWGQGTSVAVSS
VL: DVVMTQTPLSLPVSLGDQASISCRSSQSLVHSNGNTYLHWYLQRPGQSPKLLIYKVSNRFSGVPDRFSGSGSGTDFTLKISRVEAEDLGVYFCSQSTLGPTFGGGTKLEMQR
B3: monoclonal antibody 4E8 (antibody, V domains shown)
VH: B2 VH with G26D, N30I, T56S, N70S, R71K, T87A, V96A, A116T
VL: B2 VL with S32N, R44K, S61F, L98H, G99V, M110I, Q111K
B4: monoclonal antibody 4E11 (antibody, V domains shown)
VH: EVQLQESGPGLVRPSQSLSITCTVSGFSLPLYGVHWVRQSPGKGLEWLGVIWSGGSTDYNAAFVSRLSISKDNSKSQVFFEMNSLQADDTATYYCARNNGYYVDAMDYWGQGTSVTVSS
VL: B2 VL with R44K, Y54F, K79Q, V90F, L98H, G99V, M110I, Q111K

What was measured:
[1] = target: T6, AMA1 on P. falciparum 3D7 strain parasites (Plasmodium falciparum); assay: cell-based or functional assay
[2] = target: T1, P. falciparum 7G8 AMA1 recombinant …; assay: dot blot against 7 AMA1 allelic proteins
[3] = target: T2, P. falciparum FVO AMA1 recombinant …; assay: dot blot against 7 AMA1 allelic proteins
[4] = target: T3, P. falciparum HB3 AMA1 recombinant …; assay: dot blot against 7 AMA1 allelic proteins
[5] = target: T4, P. falciparum W2mef AMA1 recombinant …; assay: dot blot against 7 AMA1 allelic proteins
[6] = target: T5, P. falciparum 3D7 AMA1 recombinant …; assay: dot blot against 7 AMA1 allelic proteins
[7] = target: T6, AMA1 on P. falciparum 3D7 strain …; assay: cell-based or functional assay; remark: listed apart in the source

Binder | Inhibition (GIA at 1 mg/ml against the 3D7 target strain) [1] [%] | binding result [2] | binding result [3] | binding result [4] | binding result [5] | binding result [6] | IC30 concentration (30% inhibition against the 3D7 target parasites, GIA) [7] [µg/mL]
B1 | 20 | binds | binds | binds | binds | binds | 1900
B2 | 65 | – | – | – | – | – | 150
B3 | 67 | – | – | – | – | – | 150
B4 | 62 | – | – | – | – | – | 220
